The record followed here is publication PMC5897841, “Development of a multipurpose scaffold for the display of peptide loops” (Protein Engineering, Design and Selection, 2017).

pKd: −log10 of the molar value.

For test [1], the target named is Fluorescein-CK2β_((186–200)) peptide (human) (UniProt P67870). Briefly: fluorescence polarisation; fluorescence anisotropy, direct titration of kinase (CK2α 2 nM-2 μM; Aurora A D274N 2 nM-1.5 μM) into labelled peptide or display protein; 10 mM HEPES pH 7.4, 500 mM NaCl, 1 mM DTT, 0.05% P20; room temperature; 1:1 model. (In general: In fluorescence polarisation assays a small probe gives low polarisation when free and higher when bound to something large.)

Test [2] has as its target Alexa Fluor 488-labeled cRAD-CK2β_((186–200)) (Pyrococcus furiosus | human) (UniProt O74036). The test is described as above.
For test [3], the target named is synthetic linear CK2β_((186–200)) peptide with C-terminal Gly-Cys (human) (UniProt P67870). Briefly: SPR; Biacore T100, CM5, peptides or cRAD display proteins immobilised through their cysteine (240-400 RU), kinase as analyte 2.5 nM-2.5 μM, 25°C, 10 mM HEPES pH 7.4, 500 mM NaCl, 0.05% P20; 1:1 steady-state affinity model; CK2α data analysed at 200 s post-injection. For orientation: Surface plasmon resonance follows binding to a sensor surface in real time, without labels.

Test [4] concerns the target CK2α kinase (human) (UniProt P68400). Briefly: ITC; itc200, 25°C, 10 mM HEPES pH 7.4, 500 mM NaCl, 0.05% P20; 50 μM titrant into 5 μM Aurora A D274N, 100 μM CK2β peptide or RAD-CK2β into 10 μM CK2α; single-site model. (In general: In ITC the heat of successive injections is recorded.)
In test [5] the target is Aurora A_(D274N) kinase domain (human) (UniProt O14965). The description is as above.
Chain of Aurora A_(D274N) kinase domain (human) (O14965 122-403 D274N): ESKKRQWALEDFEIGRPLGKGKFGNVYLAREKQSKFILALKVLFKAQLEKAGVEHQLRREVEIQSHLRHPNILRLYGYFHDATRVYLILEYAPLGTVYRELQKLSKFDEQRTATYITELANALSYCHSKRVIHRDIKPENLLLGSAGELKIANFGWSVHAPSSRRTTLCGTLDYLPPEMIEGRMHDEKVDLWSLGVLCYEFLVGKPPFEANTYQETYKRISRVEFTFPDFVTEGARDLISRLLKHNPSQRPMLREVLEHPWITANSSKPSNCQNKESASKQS
Test [6] addresses Aurora A wild-type kinase domain (untagged) (human). The test is described as follows: fluorescence polarisation; fluorescence anisotropy competition: 10 nM Alexa Fluor 488-TPX2 peptide and 50 nM Aurora A wild type, RAD-TPX2 variants as competitors 195 nM-25 μM, 25°C, HEPES pH 7.4, 0.1 M Mg(CH3COO)2, 100 mM NaCl, 1 mM ATP, 1 mM DTT, 0.01% P20; Ki from the equation of Wang (1995), given as KD in Table II.

The target in test [7] is double His-tagged RAD-TPX2_((7–43)) Y10A (Pyrococcus furiosus | human) (UniProt O74036). The test is described as follows: BLI; Octet RED96, Anti-Penta-HIS biosensors loaded with double His-tagged RAD-TPX2 proteins (1 μM), untagged Aurora A wild type 0-500 or 5000 nM as analyte; 50 mM HEPES pH 7.4, 500 mM NaCl, 100 mM Mg(CH3COO)2, 0.5 mM ATP, 0.5 mM TCEP, 0.05% P20; 1:1 model.

Test [8] deals with double His-tagged RAD-TPX2_((7–43)) D11A (Pyrococcus furiosus | human) (UniProt O74036). The test is described as above.
Test [9] deals with double His-tagged RAD-TPX2_((7–43)), wild-type TPX2 sequence (Pyrococcus furiosus | human) (UniProt O74036). Described as above.
The target of test [10] is double His-tagged RAD-TPX2_((7–43)) F19A (Pyrococcus furiosus | human) (UniProt O74036). The test is described as above.
Test [11] deals with double His-tagged RAD-TPX2_((7–43)) W34A (Pyrococcus furiosus | human) (UniProt O74036). Described as above.
The target of test [12] is double His-tagged RAD-TPX2_((7–43)) F16A (Pyrococcus furiosus | human) (UniProt O74036). Described as above.
For test [13], the target named is double His-tagged RAD-TPX2_((7–43)) F35A (Pyrococcus furiosus | human) (UniProt O74036). Described as above.
In test [14] the target is double His-tagged RAD-TPX2_((7–43)) Y8A (Pyrococcus furiosus | human) (UniProt O74036). The test is described as above.
Test [15] has as its target CK2α kinase (human) (UniProt P68400). Briefly: SEC; analytical Superdex 75 5/150, 20 mM HEPES pH 7.5, 500 mM NaCl; single proteins and equimolar mixture; fractions checked by SDS-PAGE.
The target is the same in test [16]. The test is described as follows: AUC; sedimentation velocity, absorbance at 280 nm, 50 000 rpm, 20°C, 20 mM HEPES pH 7.5, 500 mM NaCl; single proteins and mixtures (5 μM each CK2α and RAD-CK2β; 10 μM each Aurora A D274N and RAD-TPX2).

Chain of CK2α kinase (P68400 2-329): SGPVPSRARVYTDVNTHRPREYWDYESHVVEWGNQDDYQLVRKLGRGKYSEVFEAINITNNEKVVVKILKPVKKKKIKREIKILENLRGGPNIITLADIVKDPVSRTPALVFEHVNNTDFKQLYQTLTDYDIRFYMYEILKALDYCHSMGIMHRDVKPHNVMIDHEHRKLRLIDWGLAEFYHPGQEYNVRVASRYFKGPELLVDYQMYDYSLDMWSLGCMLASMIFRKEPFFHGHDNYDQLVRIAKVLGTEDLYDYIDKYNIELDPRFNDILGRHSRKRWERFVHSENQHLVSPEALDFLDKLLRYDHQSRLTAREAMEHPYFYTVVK
Chain of CK2α kinase (human) (P68400 2-329): as above
Chain of Aurora A wild-type kinase domain (untagged) (human) (O14965 133-383): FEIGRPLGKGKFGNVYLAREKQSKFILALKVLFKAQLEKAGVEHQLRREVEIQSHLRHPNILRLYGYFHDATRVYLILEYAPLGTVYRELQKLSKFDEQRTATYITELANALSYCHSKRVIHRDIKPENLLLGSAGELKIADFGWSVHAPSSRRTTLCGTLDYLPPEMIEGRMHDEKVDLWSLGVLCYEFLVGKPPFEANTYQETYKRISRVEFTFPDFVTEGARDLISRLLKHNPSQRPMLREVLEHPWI

In the case of “CK2α kinase (from UniProt P68400 2-329) (enzyme)”, the figures for the pKd in test [1], in [2] and in [3] were 6.46, 6.86 and 6.39, respectively.
“cRAD-CK2β_((186–200)) display protein (from UniProt O74036 108-287; P67870 186-200; O74036 302-349)”: in [4], the pKd was 6.85.
Substance “cRAD-TPX2_((7–43)) display protein (from UniProt O74036 108-287; O74036 302-349)” gave a negative logarithm of the Kd (pKd) in test [5] of 6.83.
For “double His-tagged RAD-TPX2_((7–43)) D11A (from UniProt O74036 108-287; Q9ULW0 7-43; O74036 302-349)”, the negative-log Kd (pKd) in test [6] was less than 5.49.
“double His-tagged RAD-TPX2_((7–43)) W34A (from UniProt O74036 108-287; Q9ULW0 7-43; O74036 302-349)” had a pKd in test [6] of 5.93.
For “double His-tagged RAD-TPX2_((7–43)) F16A (from UniProt O74036 108-287; Q9ULW0 7-43; O74036 302-349)”, the pKd in test [6] is 6.52.
Turning to “synthetic linear CK2β_((186–200)) peptide (from UniProt P67870 186-200)”, in test [4], the pKd was 6.86.
On to “double His-tagged RAD-TPX2_((7–43)) Y8A (from UniProt O74036 108-287; Q9ULW0 7-43; O74036 302-349)”, for which the pKd in [6] was less than 5.49.
In [6], “double His-tagged RAD-TPX2_((7–43)), wild-type TPX2 sequence (from UniProt O74036 108-287; O74036 302-349)” had a negative-log Kd (pKd) of 8.70.
On to “Aurora A wild-type kinase domain (untagged) (domain or fragment)”, for which the pKd is 4.96 in [7]; 5.96 in [8]; 7.34 in [9]; 6.06 in [10]; 6.08 in test [11]; 6.09 in test [12]. For the same substance, the results for the negative-log Kd (pKd) in [13] and in test [14] were 5.96 and 5.55, respectively.
For “RAD-CK2β_((186–200)) display protein (as used in AUC and SEC) (from UniProt O74036 108-287; P67870 186-200; O74036 302-349)”, the stoichiometry N in test [15] and in test [16] was 1 throughout.
With “double His-tagged RAD-TPX2_((7–43)) Y10A (from UniProt O74036 108-287; Q9ULW0 7-43; O74036 302-349)”, the negative logarithm of the Kd (pKd) in [6] is less than 5.49.
For “double His-tagged RAD-TPX2_((7–43)) F35A (from UniProt O74036 108-287; Q9ULW0 7-43; O74036 302-349)”, the pKd in [6] was 5.95.
With “double His-tagged RAD-TPX2_((7–43)) F19A (from UniProt O74036 108-287; Q9ULW0 7-43; O74036 302-349)”, the pKd in [6] is 5.75.

The pKd is the negative decadic logarithm of the Kd, by convention in mol/L. Broadly, the stoichiometry N is a count of units in the complex or per binding partner.
